According to the supplement of paper PMC10567573:

B1: CCND1 (parent)
chain: IRRAYPDANLLNDRVLRAMLKAEE

Variants of: B1
Test: protein stability index of a GFP-peptide fusion (GPS, HEK-293T) (PSI 1-6); higher = more stable
Conditions: c terminus: a fixed tail appended
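Also: lentivirally expressed fusions sorted by FACS into six bins by GFP to DsRed ratio, PSI derived from sequencing read proportions per bin multiplied by bin number.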

Variant | protein stability index
IRRAYPDSNLLNDRVLRAMLKAEE [A8S] | 2.81
IRRAYPDPNLLNDRVLRAMLKAEE [A8P] | 3.03
IRRAYPDKNLLNDRVLRAMLKAEE [A8K] | 2.53
IRRAYPDINLLNDRVLRAMLKAEE [A8I] | 2.02
IRRAYPLANLLNDRVLRAMLKAEE [D7L] | 1.84
IRRAYPNANLLNDRVLRAMLKAEE [D7N] | 3.11
IRRAYPPANLLNDRVLRAMLKAEE [D7P] | 2.09
IRRAYPHANLLNDRVLRAMLKAEE [D7H] | 2.14
IRRAYPWANLLNDRVLRAMLKAEE [D7W] | 2.36
IRRAYPKANLLNDRVLRAMLKAEE [D7K] | 2.1
IRRAYPAANLLNDRVLRAMLKAEE [D7A] | 1.83
IRRAYPEANLLNDRVLRAMLKAEE [D7E] | 2.06
IRRAYPSANLLNDRVLRAMLKAEE [D7S] | 2.43
IRRAYPTANLLNDRVLRAMLKAEE [D7T] | 2.23
IRRAYPFANLLNDRVLRAMLKAEE [D7F] | 1.65
IRRAYPYANLLNDRVLRAMLKAEE [D7Y] | 2.13
IRRAYPDANLLNDRVLRKMLKAEE [A18K] | 3.02
IRRAYPDANLLNDRVLRGMLKAEE [A18G] | 3.77
IRRAYPDANLLNDRVLRIMLKAEE [A18I] | 2.36
IRRAYPDANLLNDRVLRHMLKAEE [A18H] | 3.17
IRRAYPDANLLNDRVLRCMLKAEE [A18C] | 2.33
IRRAYPDANLLNDDVLRAMLKAEE [R14D] | 1.56
IRRAYPDANLLNDKVLRAMLKAEE [R14K] | 1.83
IRRAYPDANLLNDAVLRAMLKAEE [R14A] | 2.3

Variant | protein stability index
IRRAYPDANLLNDGVLRAMLKAEE [R14G] | 1.96
IRRAYPDANLLNDTVLRAMLKAEE [R14T] | 3.07
IRRAYPDANLLNDIVLRAMLKAEE [R14I] | 1.03
IRRAYPDANLLNDYVLRAMLKAEE [R14Y] | 1.84
IRRAYPDANLLNDCVLRAMLKAEE [R14C] | 2.41
IRRAYPDANLLNDLVLRAMLKAEE [R14L] | 1.99
IRRAYPDANLLNDMVLRAMLKAEE [R14M] | 2.81
IRRAYPDANLLNDHVLRAMLKAEE [R14H] | 1.74
IRRAYPDANLLNDFVLRAMLKAEE [R14F] | 2.56
IRRAYPDANLLNDQVLRAMLKAEE [R14Q] | 2.29
IRRAYPDANLLNDEVLRAMLKAEE [R14E] | 2.84
IRRAYPDANLLNDRVHRAMLKAEE [L16H] | 3.38
IRRAYPDANLLNDRVVRAMLKAEE [L16V] | 2.94
IRRAYPDANLLNDRVPRAMLKAEE [L16P] | 4.08
IRRAYPDANLLNDRVYRAMLKAEE [L16Y] | 3.66
IRRAYPDANLLNDRVSRAMLKAEE [L16S] | 4.52
IRRAYPDANLLNDRVGRAMLKAEE [L16G] | 2.99
IRRAYPDANLLNDRVIRAMLKAEE [L16I] | 2.85
IRRAYPDANLLNDRVERAMLKAEE [L16E] | 4.28
IRRAYPDANLLNDRVARAMLKAEE [L16A] | 3.43
IRRAYPDANLLNDRVNRAMLKAEE [L16N] | 3.65
IRRAYPDANLLNDRVKRAMLKAEE [L16K] | 3.67
IRRAYPDANLLNDRVQRAMLKAEE [L16Q] | 3.53
IRRAYPDANLENDRVLRAMLKAEE [L11E] | 3.58

Variant | protein stability index
IRRAYPDANLDNDRVLRAMLKAEE [L11D] | 4.19
IRRAYPDANLQNDRVLRAMLKAEE [L11Q] | 3.79
IRRAYPDANLTNDRVLRAMLKAEE [L11T] | 3.04
IRRAYPDANLSNDRVLRAMLKAEE [L11S] | 3.01
IRRAYPDANLKNDRVLRAMLKAEE [L11K] | 3.33
IRRAYPDANLWNDRVLRAMLKAEE [L11W] | 2.02
IRRAYPDANLPNDRVLRAMLKAEE [L11P] | 2.48
IRRAYPDANLINDRVLRAMLKAEE [L11I] | 2.43
IRRAYPDANLFNDRVLRAMLKAEE [L11F] | 1.75
IRRAYPDANLNNDRVLRAMLKAEE [L11N] | 1.97
IRRAYPDANLMNDRVLRAMLKAEE [L11M] | 1.92
IRRAYPDANLGNDRVLRAMLKAEE [L11G] | 2.84
IRRAYPDANLCNDRVLRAMLKAEE [L11C] | 2.69
IRRAYPDANLVNDRVLRAMLKAEE [L11V] | 2.72
IRRAYPDANLLNKRVLRAMLKAEE [D13K] | 2.45
IRRAYPDANLLNRRVLRAMLKAEE [D13R] | 3.68
IRRAYPDANLLNHRVLRAMLKAEE [D13H] | 2.2
IRRAYPDANLLNQRVLRAMLKAEE [D13Q] | 3.34
IRRAYPDANLLNLRVLRAMLKAEE [D13L] | 2.02
IRRAYPDANLLNMRVLRAMLKAEE [D13M] | 2.66
IRRAYPDANLLNVRVLRAMLKAEE [D13V] | 1.54
IRRAYPDANLLNWRVLRAMLKAEE [D13W] | 2.35
IRRAYPDANLLNIRVLRAMLKAEE [D13I] | 2.91
IRRAYPDANLLNNRVLRAMLKAEE [D13N] | 2.02

Variant | protein stability index
IRRAYPDANLLNARVLRAMLKAEE [D13A] | 2.28
IRRAYPDANLLNSRVLRAMLKAEE [D13S] | 2.37
IRRAYPDANLLNFRVLRAMLKAEE [D13F] | 2.34
IRRAYPDANLLNCRVLRAMLKAEE [D13C] | 2.72
IRRAYPDANLLNTRVLRAMLKAEE [D13T] | 2.52
IRRAYPDANLLNPRVLRAMLKAEE [D13P] | 2.61
IRRAYPDANLLNDRVLYAMLKAEE [R17Y] | 3.4
IRRAYPDANLLNDRVLDAMLKAEE [R17D] | 2.12
IRRAYPDANLLNDRVLPAMLKAEE [R17P] | 3.46
IRRAYPDANLLNDRVLCAMLKAEE [R17C] | 2.46
IRRAYPDANLLNDRVLWAMLKAEE [R17W] | 1.74
IRRAYPDANLLNDRVLHAMLKAEE [R17H] | 2.31
IRRAYPDANLLNDRVLLAMLKAEE [R17L] | 3.01
IRRAYPDANLLNDRVLFAMLKAEE [R17F] | 2.1
IRRAYPDANLLNDRVLTAMLKAEE [R17T] | 3.47
IRRAYPDANLLNDRVLEAMLKAEE [R17E] | 2.22
IRRAYPDANLLNDRVLSAMLKAEE [R17S] | 2.72
IRRAYPDANLLNDRVLQAMLKAEE [R17Q] | 2.68
IRRAYPDANLLNDRVLIAMLKAEE [R17I] | 1.82
IRRAYPDANLLNDRVLMAMLKAEE [R17M] | 3.21
IRRAYPDANLLNDRVLVAMLKAEE [R17V] | 1.72
IRRAYPDANLLNDRVLNAMLKAEE [R17N] | 2.61
